We go through 5 molecules from paper PMC2820149 (Journal of the American Chemical Society, 2010).

Data set [1] relates to Pa0142 homologue (gi|44264246).
Substrate in data set [2]: Nc1nc2nc[nH]c2c(=O)[nH]1
Kind of data set: deamination kinetics. Format: biochemical, Pseudomonas aeruginosa.

Substrate in data set [3]: Nc1nc2nc[nH]c2c(=O)[nH]1
Put plainly: deamination kinetics. It is filed as biochemical, Escherichia coli.

Substrate in data set [4]: Nc1nc2nc[nH]c2c(=O)[nH]1
Put plainly: coupled ammonia assay. It is filed as biochemical, Pseudomonas aeruginosa. Particulars: pH 8.0, 30 °C.

Substrate in data set [5]: Nc1nccc(O)n1
Put plainly: coupled ammonia assay. Format: biochemical, Pseudomonas aeruginosa. The conditions noted are these: pH 8.0, 30 °C.

What is called Km is the substrate concentration at which the rate is half of its maximum. For `Nc1nccc(=O)[nH]1` [compound 3, isocytosine], the Km in data set [1] turned out to be 1600 ± 200 µM.
With `Nc1nc2[nH]cnc2c(=O)[nH]1` [compound 2, guanine], in data set [1], the Km was found to be 1000 ± 100 µM.

B1: Pa0134 (Pseudomonas aeruginosa PAO1) (protein)
chain: MNDAVPAGNFVPPLILHSDHGGSAMSSSAHRGRILHFLGDPAKLGDKAWEYFEDGLLWIEHGHVRALDHATYLLPQLPADLPLEEHPQRLLLPGFVDCHVHYPQLGVIASYGTQLLDWLETHTFPAEQRFADAGYAAAQAELFLDELLRHGTTTALVFGTVHAVSAEAFFQAAQKRRLRMIAGKVLMDRNAPPALCDTAASGYAESRALIERWHGNGRLQYAVTPRFAPTSSPEQLAAAARLLDEYPGVYLHTHLSENLKEVAWVGELFPQAQDYLDVYHRAGLVGERSVFAHGIHLSERECRCLAHKNAALAHCPSSNLFIGSGLFDLGRAQQYGIRVGIGSDVGGGTSLSLLANLADAYKIQQLRGTSLDPFQALYLATLGGARALDLDGLVGNFLPGREADFVALDLAATPMIAQRMEHARGLADTLFVLNTLGDDRAVAETWVMGERRHVKG
A word on the kcat: it is the number of substrate molecules converted per active site and unit of time at saturation. For B1, in “deamination kinetics [2]”, the Km amounted to 500 ± 90 µM and the kcat worked out at 21 ± 2 s⁻¹.

B2: b2883 (Escherichia coli K-12) (protein)
chain: MMSGEHTLKAVRGSFIDVTRTIDNPEEIASALRFIEDGLLLIKQGKVEWFGEWENGKHQIPDTIRVRDYRGKLIVPGFVDTHIHYPQSEMVGAYGEQLLEWLNKHTFPTERRYEDLEYAREMSAFFIKQLLRNGTTTALVFGTVHPQSVDALFEAASHINMRMIAGKVMMDRNAPDYLLDTAESSYHQSKELIERWHKNGRLLYAITPRFAPTSSPEQMAMAQRLKEEYPDTWVHTHLCENKDEIAWVKSLYPDHDGYLDVYHQYGLTGKNCVFAHCVHLEEKEWDRLSETKSSIAFCPTSNLYLGSGLFNLKKAWQKKVKVGMGTDIGAGTTFNMLQTLNEAYKVLQLQGYRLSAYEAFYLATLGGAKSLGLDDLIGNFLPGKEADFVVMEPTATPLQQLRYDNSVSLVDKLFVMMTLGDDRSIYRTYVDGRLVYERN
B2: in the data set “deamination kinetics [3]”, the Km was determined as 150 ± 10 µM and the kcat was 12.5 ± 0.2 s⁻¹.

B3: Pa0142 (Pseudomonas aeruginosa PAO1) (protein)
chain: MSRTWIRNPLAIFTANGLDAAGGLVVEDGRIVELLGAGQQPAQPCASQFDASRHVVLPGLVNTHHHFYQTLTRAWAPVVNQPLFPWLKTLYPVWARLTPEKLELATKVALAELLLSGCTTAADHHYLFPGGLEQAIDVQAGVVEELGMRAMLTRGSMSLGEKDGGLPPQQTVQEAETILADSERLIARYHQRGDGARVQIALAPCSPFSVTPEIMRASAEVAARHDVRLHTHLAETLDEEDFCLQRFGLRTVDYLDSVGWLGPRTWLAHGIHFNAEEIRRLGEAGTGICHCPSSNMRLASGICPTVELEAAGAPIGLGVDGSASNDASNMILEARQALYLQRLRYGAERITPELALGWATRGSARLLGRSDIGELAPGKQADLALFKLDELRFSGSHDPLSALLLCAADRADRVMVGGAWRVVDGAVEGLDLAALIARHRAAASALIAG
Turning to B3, the Km in the data set “coupled ammonia assay [4]” was 2600 ± 600 µM; in “coupled ammonia assay [5]”, 1800 ± 100 µM. In addition, the figures for the kcat in the data set “coupled ammonia assay [4]” and in the data set “coupled ammonia assay [5]” were 3.3 ± 0.6 s⁻¹ and 3.9 ± 0.1 s⁻¹, respectively.
